Two molecules from patent US20120058906A1 (published 2012) can be followed below.

In experiment [1] the target is T1, Recombinant Human DLL4 (R&D Systems Cat#1506-D4/CF) (human, UniProt Q9NR61 27-524).
T1 construct: Bought recombinant protein; also called delta-like protein 4; rHuman DLL4
The experiment in a line: ECL (MSD Multi-Spot) binding assay, antigen spotted on plate; Fab 154 nM; blank spot 447.

In experiment [2] the target is T2, rHuman ErbB2/Fc Chimera, CF (R&D Systems Cat#1129-ER) (human, UniProt P04626 23-652).
T2 construct: Bought Fc chimera; also called HER2/neu; human epidermal growth factor 2 receptor; Fc part of the bought chimera not given
The experiment is described as above.

In experiment [3] the target is T3, rHuman EGF R/Fc Chimera, CF (R&D Systems Cat#344-ER) (human, UniProt P00533 25-645).
T3 construct: Bought Fc chimera; also called epidermal growth factor receptor; Fc part of the bought chimera not given
The experiment is described as above.

Experiment [4] has as its target T4, rHuman IGF-1 sR (IGF-1 sR), CF (R&D Systems Cat#391-GR) (human, UniProt P08069 31-932).
T4 construct: Bought soluble receptor; also called insulin-like growth factor-1 soluble receptor; IGF-R1
Described as above.

Experiment [5] addresses T5, rHuman IGF-1 sR (insulin-like growth factor-1 soluble receptor), CF (R&D Systems Cat#391-GR) (human, UniProt P08069 31-932).
T5 construct: Bought soluble receptor; also called IGF-R1
The experiment in a line: ECL (MSD multi-spot), antigen on plate, Fab 2 nM.

The target in experiment [6] is T6, rHuman P-Cadherin/Fc Chimera, CF (R&D Systems Cat#861-PC) (human, UniProt P22223 108-654).
T6 construct: Bought Fc chimera; also called CDH3; not shown: Fc of the bought chimera
The experiment in a line: ECL (MSD multi-spot), antigen on plate, Fab 2 nM.

In experiment [7] the target is T7, rHuman Erythropoietin R/Fc Chimera, CF (R&D Systems Cat#963-ER) (human, UniProt P19235 25-250).
T7 construct: Bought Fc chimera; also called EPO R/Fc; Epo R; not shown: Fc of the bought chimera
T7 sequence: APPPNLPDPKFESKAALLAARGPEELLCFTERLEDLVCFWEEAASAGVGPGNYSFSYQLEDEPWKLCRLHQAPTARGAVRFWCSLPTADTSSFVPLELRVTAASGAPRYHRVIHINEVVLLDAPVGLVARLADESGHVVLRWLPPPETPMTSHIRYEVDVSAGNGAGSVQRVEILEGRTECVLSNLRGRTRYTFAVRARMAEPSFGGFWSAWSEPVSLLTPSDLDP
The experiment in a line: ECL (MSD multi-spot), antigen on plate, Fab 2 nM.

The target of experiment [8] is T8, Recombinant Human DLL4 (R&D Systems Cat#1506-D4/CF) (human, UniProt Q9NR61 27-524).
T8 construct: Bought recombinant protein; also called delta-like protein 4
Put plainly: ECL (MSD multi-spot), antigen on plate, Fab 2 nM.

Experiment [9] deals with T9, rHuman ErbB2/Fc Chimera, CF (R&D Systems Cat#1129-ER) (human, UniProt P04626 23-652).
T9 construct: Bought Fc chimera; also called HER2/neu; not shown: Fc of the bought chimera
Put plainly: ECL (MSD multi-spot), antigen on plate, Fab 2 nM.

For experiment [10], the target named is T10, rHuman EGF R/Fc Chimera, CF (R&D Systems Cat#344-ER) (human, UniProt P00533 25-645).
T10 construct: Bought Fc chimera; also called ErbB-1; not shown: Fc of the bought chimera
Put plainly: ECL (MSD multi-spot), antigen on plate, Fab 2 nM.

Experiment [11] deals with T11, rHuman HGF R/c-MET/Fc Chimera, CF (R&D Systems Cat#358-MT/CF) (human, UniProt P08581 25-932).
T11 construct: Bought Fc chimera; also called HGF R/Fc; not shown: Fc of the bought chimera
Put plainly: ECL (MSD multi-spot), antigen on plate, Fab 2 nM.

Experiment [12] addresses T12, rHuman Notch-1/Fc Chimera, CF (R&D Systems Cat#3647-TK) (human, UniProt P46531 19-526).
T12 construct: Bought Fc chimera; not shown: Fc of the bought chimera
Put plainly: ECL (MSD multi-spot), antigen on plate, Fab 2 nM.

Experiment [13] addresses T13, rHuman CD44/Fc Chimera, CF (R&D Systems Cat#3660-CD) (human, UniProt P16070 21-220).
T13 construct: Bought Fc chimera; not shown: Fc of the bought chimera
Put plainly: ECL (MSD multi-spot), antigen on plate, Fab 2 nM.

Experiment [14] addresses T5, rHuman IGF-1 sR (insulin-like growth …). Put plainly: ECL (MSD multi-spot), antigen on plate, Fab 50 nM.
Experiment [15] has as its target T6, rHuman P-Cadherin/Fc Chimera, CF (R&D …). The experiment in a line: ECL (MSD multi-spot), antigen on plate, Fab 50 nM.
Experiment [16] deals with T7, rHuman Erythropoietin R/Fc Chimera, CF …. Put plainly: ECL (MSD multi-spot), antigen on plate, Fab 50 nM.
The target of experiment [17] is T8, Recombinant Human DLL4 (R&D Systems …). Put plainly: ECL (MSD multi-spot), antigen on plate, Fab 50 nM.
Experiment [18] concerns the target T9, rHuman ErbB2/Fc Chimera, CF (R&D …). Put plainly: ECL (MSD multi-spot), antigen on plate, Fab 50 nM.
Experiment [19] addresses T10, rHuman EGF R/Fc Chimera, CF (R&D …). The experiment in a line: ECL (MSD multi-spot), antigen on plate, Fab 50 nM.
Experiment [20] has as its target T12, rHuman Notch-1/Fc Chimera, CF (R&D …). The experiment in a line: ECL (MSD multi-spot), antigen on plate, Fab 50 nM.
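Further: blank spot per well as comparator with Hit at signal to blank ratio of 4 or more.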

B1: Fab VH5-51_IGHD5-18*01>3_IGHJ4*01 & V3-4_IGLJ1*01 (Fab, V domains shown)
VH: EVQLVQSGAEVKKPGESLKISCKGSGYSFTSYWIGWVRQMPGKGLEWMGIIYPGDSDTRYSPSFQGQVTISADKSISTAYLQWSSLKASDTAMYYCARRGYSYGYDYFDYWGQGTLVTVSS
VL: QTVVTQEPSFSVSPGGTVTLTCGLSSGSVSTSYYPSWYQQTPGQAPRTLIYSTNTRSSGVPDRFSGSILGNKAALTITGAQADDESDYYCVLYMGSGISYVFGTGTKVTVL
notes: Tested as a Fab made in E. coli; also called IGHV5-51*03
B1: the ECL signal in [1] stood at 40400; in [2] it was 1590; in [3] it was 1400; in experiment [4], 1400.

B2: Fab VH1-46_IGHD6-6*01_IGHJ1*01_S102A_S103P_S104F & L6_IGKJ1*01_S30N (Fab, V domains shown)
VH: QVQLVQSGAEVKKPGASVKVSCKASGYTFTSYYMHWVRQAPGQGLEWMGIINPSGGSTSYAQKFQGRVTMTRDTSTSTVYMELSSLRSEDTAVYYCAREEYAPFSAEYFQHWGQGTLVTVSS
VL: EIVLTQSPATLSLSPGERATLSCRASQSVNSYLAWYQQKPGQAPRLLIYDASNRATGIPARFSGSGSGTDFTLTISSLEPEDFAVYYCQQRSNWPPWTFGQGTKVEIKR
notes: Fab
B2: the ECL signal in [5] came out at 296 ECL signal; in [6], 395 ECL signal; in experiment [7], 294 ECL signal; in [8], 11400 ECL signal; in [9], 138 ECL signal; in [10] it was 171 ECL signal. The ECL signal in experiment [11] was found to be 207 ECL signal; in [12], 274 ECL signal; in experiment [13], 209 ECL signal; in experiment [14], 240 ECL signal; in experiment [15], 143 ECL signal; in experiment [16], 500 ECL signal. In addition, the ECL signal is 37200 ECL signal in experiment [17], 395 ECL signal in experiment [18], 294 ECL signal in experiment [19] and 279 ECL signal in [20].
